# Measurements published in PMC6687723.
# How the values were obtained:
# [1] = target: Hsp70 (SBD), residues 394-540 (human) (UniProt P0DMV8); assay: ITC; AR protein (100-200 µM) in the syringe titrated into 10-20 µM chaperone in the cell; 25 °C; 25 mM HEPES, 5 mM MgCl2, 10 mM KCl pH 7.5; one or two-site binding model; no nucleotides
# [2] = target: human Hsp40 (DNAJA2), full length (human) (UniProt O60884); assay: as above
# [3] = target: Hsp70SBD (HSPA1A), truncated form, residues 394-509 (human) (UniProt P0DMV8); assay: fluorescence polarisation; competition: 2 µM Hsp70SBD and 25 nM FAM-LVEALY with varying concentrations of AR protein, 30 min at room temperature; 100 mM Tris, 20 mM KCl, 6 mM MgCl2 pH 7.4; no nucleotides
# [4] = target: androgen receptor N-terminal domain construct NTD_(1-155) (human) (UniProt P10275); assay: NMR titration; 1H,15N-HSQC of 33 µM 15N-labelled NTD construct with 16.5 or 33 µM (0.5 or 1 molar equivalents) unlabelled Hsp70 or Hsp40; 5 °C; 20 mM phosphate pH 7.4, 1 mM TCEP, 10% D2O; no added nucleotides
Substance,Kd [1] [µM],Kd [2] [µM],stoichiometry N [2],IC50 [3] [µM],I/I0 of NTD (1-155) signals at 1 molar equivalent [4]
androgen receptor N-terminal domain construct NTD_(1-155) (from UniProt P10275 1-155) (domain or fragment),5,3.3,0.49,1.7,
"human Hsp40 (DNAJA2), full length (from UniProt O60884 1-412) (natural protein)",,,,,0.3
"human Hsp70 (HSPA1A), full length (from UniProt P0DMV8 1-641) (natural protein)",,,,,0.3
